Target: GST-fused Par-6 CRIB-PDZ (UniProt O97111)
Test: pull-down

With “Par complex ΔCRIB-PDZ (full length aPKC with the Par-6 PB1 domain) (from UniProt A1Z9X0 1-606)” the fold increase of binding with Par-3 PDZ2 against without was over 20 fold.
